According to the supplement of paper PMC10567573:
± gives the standard deviation.

Assay: protein stability index of a GFP-peptide fusion (GPS, HEK-293T) (PSI 1-6); higher = more stable
[1] = treatment: DMSO, c terminus: a fixed tail appended
[2] = treatment: MLN4924 1 uM, 8 h, c terminus: a fixed tail appended
[3] = treatment: DMSO, c terminus: native
[4] = treatment: MLN4924 1 uM, 8 h, c terminus: native
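Note: 24-mer peptide tiles fused after GFP, lentivirally expressed, FACS-sorted into six equal bins by GFP/DsRed ratio, decoded by Illumina sequencing, PSI is the read-weighted mean bin number.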

Row | Sequence | protein stability index [1] | protein stability index [2] | protein stability index [3] | protein stability index [4]
1 | LCPGDLIQAINGESTELMTHLEAQ [PDLIM4] | 4.51 ± 0.26 | 4.54 ± 0.094 | – | –
2 | IVETLTVGCKGSKAGIEQEGYWLP [ZMYND11] | 2.21 ± 0.18 | 2.26 ± 0.14 | – | –
3 | ILAFLVLEAVAGALVVALWGPLQD [TSPAN10] | 2.85 ± 0.24 | 3.03 ± 0.27 | – | –
4 | KAVEEELDAEDRPAWNSKLQYILA [SLC6A17] | 2.96 ± 0.38 | 3.15 ± 0.24 | – | –
5 | PGRGVYLLKFDNSYSLWRSKSVYY [ACBD3] | 2.78 ± 0.52 | 2.69 ± 0.76 | – | –
6 | RNIMNLIDIVAIIPYFITLGTELA [KCNA3] | 2.84 ± 0.4 | 2.97 ± 0.21 | – | –
7 | DQIRQGIQLKSVADGQESTPPTPA [WASL] | 5.33 ± 0.16 | 5.51 ± 0.15 | – | –
8 | MDNYADLSDTELTTLLRRYNIPHG [EMD] | 3.19 ± 0.11 | 3.37 ± 0.15 | – | –
9 | CGLLPISPEALSLGEVAYHDYHGI [ADD1] | 2.18 ± 0.24 | 2.35 ± 0.41 | – | –
10 | GSSSDNRTYRYSNRYCGGPGPPIT [DYRK1B] | 2.57 ± 0.42 | 2.75 ± 0.19 | – | –
11 | FAQADALKGTLVSTLKEVKPTVFI [ACSBG2] | 2.4 ± 0.52 | 3.04 ± 0.86 | – | –
12 | PPPVESELALFQMSVLWLEHDRET [KLHL14] | 3.18 ± 0.085 | 3.25 ± 0.23 | – | –
13 | ELIGDYSKAFLLQTVDGKHQDLKY [CDC25B] | 2.41 ± 0.18 | 2.51 ± 0.29 | – | –
14 | SKDWEEVVVESMEQDRIPEVHVPP [MIA2] | 5.09 ± 0.25 | 4.87 ± 0.26 | – | –
15 | DAQEIMQSLRDLGVKISEQQAEKI [SLC25A25] | 3.81 ± 0.21 | 3.79 ± 0.47 | – | –
16 | VGSVHVDSGASAITRESHTHRDRP [CSNK1G1] | 4.85 ± 0.25 | 4.66 ± 0.32 | – | –
17 | RGEAEAFAIGARARAEAEQMAKKA [FLOT1] | 5.33 ± 0.27 | 5.17 ± 0.26 | – | –
18 | PSDPPAMSPGPLDALSSPTSVQEA [C2CD2L] | 5.54 ± 0.18 | 5.42 ± 0.2 | – | –
19 | ITESFTELARIVLLRHGMDRLWRP [RAB40B] | 2.84 ± 0.1 | 2.86 ± 0.25 | – | –
20 | QQHRQGRSHHLEMVIQLLAIMCVS [PTGFR] | 2.61 ± 0.51 | 2.12 ± 0.44 | – | –
21 | ELVVRFFACPSKTDFFKNIMNFID [KCNA1] | 2.32 ± 0.58 | 2.33 ± 0.52 | – | –
22 | VQVLTMGNDTSPSEGTNLNAPNSL [HNF4A] | 3.97 ± 0.17 | 4.02 ± 0.18 | – | –
23 | GKIDFPRHLDFHVKDLIKKLLVVD [PRKX] | 2.44 ± 0.48 | 1.97 ± 0.078 | – | –

Row | Sequence | protein stability index [1] | protein stability index [2] | protein stability index [3] | protein stability index [4]
24 | KDIAPEKQLLNSAVIAQQRRKPDP [DLC1] | 5 ± 0.086 | 5.25 ± 0.17 | – | –
25 | AEYPANGSGADRIYDLNIPAFVKF [NCK2] | 2.88 ± 0.33 | 2.7 ± 0.29 | – | –
26 | SKQRKDFEGMAFLETEQGKPFVSV [GMCL1] | 3.42 ± 0.14 | 3.27 ± 0.16 | – | –
27 | GHEYAAKIINTKKLSARDHQKLER [CAMK2B] | 4.09 ± 0.24 | 4.32 ± 0.19 | – | –
28 | MALPFFSLAEVRVGYQSQNISCFF [MYORG] | 3.15 ± 1.1 | 3.11 ± 0.89 | – | –
29 | MTSISLPSVMDPGAFETVLASAYT [ZBTB22] | 2.57 ± 0.23 | 2.72 ± 0.26 | – | –
30 | GFEESEPLTGFLTTVPDGPTQLRA [TNXB] | 4.44 ± 0.41 | 4.52 ± 0.3 | – | –
31 | DEDLDLIPPKSVNPTCMCCQATSS [FAM219A] | 4.63 ± 0.33 | 4.53 ± 0.63 | – | –
32 | GVGFATRKVAGMAKPNMIISVNGD [FABP4] | 3.02 ± 0.28 | 3.04 ± 0.47 | – | –
33 | LEKEIEVLERGDSAPATAKENAAA [PALM] | 5.34 ± 0.2 | 5.62 ± 0.2 | – | –
34 | LTEIYRIVSQKQIADRAAHDESPG [RAB11B] | 3.52 ± 0.12 | 3.52 ± 0.27 | – | –
35 | AFADTHSCRELLRIADKFTQHNFQ [KLHL20] | 2.09 ± 0.21 | 2.02 ± 0.28 | – | –
36 | GTEEKKKLIRDFDEKQQEANETLA [VTI1B] | 5.57 ± 0.22 | 5.51 ± 0.15 | – | –
37 | VSGLLVGYELGIISGALLQIKTLL [SLC2A12] | – | 2.97 ± 1.2 | – | –
38 | RYNFTPDPDFKDLGALKPLPACEF [NETO1] | 2.87 ± 0.19 | 2.93 ± 0.33 | – | –
39 | ESSSPARGIAIVSVLVILISIVIF [KCNA4] | 3.13 ± 0.59 | 2.9 ± 0.33 | – | –
40 | QALLRISLDKVQRSLGPRAPSLRR [SERTAD3] | 2.68 ± 0.46 | 2.62 ± 0.36 | – | –
41 | ITAGAHRLWSHRSYKARLPLRLFL [SCD] | 2.6 ± 0.63 | 2.47 ± 0.64 | – | –
42 | TILNVRDPTGASIALFTARLHHPH [PTPN9] | 2.5 ± 0.21 | 1.89 ± 0.18 | – | –
43 | YRWHINFTTFFIDCMAALGLAYDR [SCD] | 2.99 ± 0.65 | 2.61 ± 0.64 | – | –
44 | PVPSAPVIDLAESLVADNCVTLVW [FSD1] | 2.56 ± 0.37 | 2.1 ± 0.24 | – | –
45 | FQSHEPEFDYLKSLEIEEKINKIR [PPP2R2B] | 3.26 ± 0.36 | 3.56 ± 0.31 | – | –
46 | PPKSVNPTCMCCQATSSTACHIQ [FAM219A] | – | – | 2.92 ± 0.29 | 3.07 ± 0.16

Row | Sequence | protein stability index [1] | protein stability index [2] | protein stability index [3] | protein stability index [4]
47 | LFFPEGTCSNKKALLKFKPGAFIA [LPCAT4] | 1.86 ± 0.38 | 2.41 ± 0.25 | – | –
48 | GEKPFECNECGKAFRWGAHLVQHQ [ZNF232] | 2.58 ± 0.52 | 2.62 ± 0.82 | – | –
49 | GVDPQQKMELGIDLLAYGAKAELP [MYOZ1] | 3.95 ± 0.083 | 4.05 ± 0.16 | – | –
50 | KRYSMYLTPKGGVRTSYQPSSPGR [TRIM29] | 3.15 ± 0.28 | 3.37 ± 0.41 | – | –
51 | ASETFNYSAIDRVKSRGKRLALEK [PI4K2A] | 4.22 ± 0.044 | 4.4 ± 0.26 | – | –
52 | LLKDKVRERIQILKTSEVTQHLPR [PTPN9] | 2.7 ± 0.32 | 2.99 ± 0.075 | – | –
53 | SLGSESEEEEEFYDADEETQMIK [SLC22A15] | – | – | 5.01 ± 0.35 | 4.92 ± 0.37
54 | GYSGTSDRIRFTVNRRISIVGFGL [BTBD1] | 2.83 ± 0.27 | 2.87 ± 0.36 | – | –
55 | PSDLDQFSDSSLIEDSQALHKRPK [LURAP1L] | 5.49 ± 0.24 | 5.43 ± 0.11 | – | –
56 | EPATPEEGEPATQRQDPAAAQEGE [GAGE1] | 5.62 ± 0.13 | 5.61 ± 0.19 | – | –
57 | HQLLEPIRDFEARKCPVHGKTMEL [TRIM29] | 3.89 ± 0.17 | 3.84 ± 0.17 | – | –
58 | QCDALIDALNRRKAQLLARVNKEH [TRIM9] | 3.05 ± 0.2 | 3.27 ± 0.23 | – | –
59 | RIFAHKIYLSTSSSKFYDLFLMDL [RHOBTB2] | 2.97 ± 0.31 | 2.86 ± 0.66 | – | –
60 | SLFIALITGAYDTIKHPGGAGAEE [MCOLN1] | 2.45 ± 0.58 | 2.2 ± 0.44 | – | –
61 | FQPQPVQPQQGYIPPMAQPGLPPV [ZNF207] | 3.5 ± 0.31 | 3.74 ± 0.26 | – | –
62 | LHPRGKNNFSPLHLAVDKNTTCVG [FEM1C] | 3.39 ± 0.13 | 3.43 ± 0.12 | – | –
63 | LMKKIGQCPMRVQKEVAGFVLNRL [CRYL1] | 2.34 ± 0.38 | 2.53 ± 0.24 | – | –
64 | QEVPHEGPMCDLLWSDPDDRGGWG [PPP2CA] | 4.39 ± 0.32 | 4.61 ± 0.2 | – | –
65 | LKNEVERLKKQLRAAQLQHSEKMA [CCDC6] | 2.83 ± 0.32 | 3.14 ± 0.25 | – | –
66 | FKSLDKKNDGRIDAQEIMQSLRDL [SLC25A25] | 4 ± 0.2 | 3.92 ± 0.34 | – | –
67 | NVKLQELINHKKAEDTEKKDEPSK [CEP70] | 5.35 ± 0.16 | 5.2 ± 0.21 | – | –
68 | GSVGAAICGLQQDEEVSSLTCDAL [CCND2] | 4.54 ± 0.35 | 4.63 ± 0.25 | – | –
69 | INLATMNSCINPIALYFVSKKFKN [EDNRA] | 2.83 ± 1.4 | 2.01 ± 0.13 | – | –

Row | Sequence | protein stability index [1] | protein stability index [2] | protein stability index [3] | protein stability index [4]
70 | QAMEEDLIVGLQGMDLNLEAEALA [HDAC6] | 4.8 ± 0.23 | 4.92 ± 0.25 | – | –
71 | QLMTSQFISVFSNLLESKADGIEV [ZER1] | 2.89 ± 0.62 | 2.5 ± 0.54 | – | –
72 | GYDDDNHDYIVRSGERWLERYEID [DYRK1B] | 4.11 ± 0.27 | 4.03 ± 0.22 | – | –
73 | GPGIPPLMPGMPPGMPPPVPRPGI [ZNF207] | 4.29 ± 0.23 | 4.35 ± 0.33 | – | –
74 | MQQFLQKALEILRKDFSELRSAGV [FAM50A] | 3.67 ± 0.41 | 3.03 ± 0.25 | – | –
75 | LLARLRELEQQIWKERDEYITKVS [TRIM15] | 1.98 ± 0.36 | 1.96 ± 0.56 | – | –
76 | TSSKPTALPSASSAYFPGQLPNS [SASS6] | – | – | 4.42 ± 0.41 | 4.4 ± 0.26
77 | KSAAMLAVFAVSAVVHEYALAVCL [SOAT1] | 3.22 ± 0.64 | 3.32 ± 0.54 | – | –
78 | AAMFGGSFVESANSEVYLPNINKI [RHOBTB1] | 2.93 ± 0.23 | 2.93 ± 0.18 | – | –
79 | MGGIMAPKDIMTNTHAKSILNSMN [KLHL12] | 2.83 ± 0.092 | 3.27 ± 0.47 | – | –
80 | LEELIDMAVLEEIQQELIKQEQSI [RPAIN] | 3.34 ± 0.31 | 3.44 ± 0.3 | – | –
81 | EDERWTNNFREYNLHRVAAHELGH [MMP1] | 3.73 ± 0.19 | 3.62 ± 0.2 | – | –
82 | HAEIIAWIRICRPGSIIGPQQHFL [CDC14A] | 3.91 ± 0.99 | 2.74 ± 1.6 | – | –
83 | SPYLGQMINLRRLLLSHIHASSYI [PRAME] | 2.7 ± 0.51 | 2.47 ± 0.48 | – | –
84 | PDKEEQLPFGPFNGTAWTYHSQDE [PKD2L1] | 4.67 ± 0.1 | 4.76 ± 0.38 | – | –
85 | DQVPSMQDGSESFFFRHGHRGLLT [SPAG8] | 3.39 ± 0.28 | 3.54 ± 0.35 | – | –
86 | QGSQASQAPPVPGPPPGAPHTPQT [NR2F2] | 5.13 ± 0.27 | 5 ± 0.51 | – | –
87 | SAAPSNDQDGEYCPEVKLKTTGLE [SRPK2] | 5.28 ± 0.28 | 5.26 ± 0.26 | – | –
88 | VFISSYMVLAPVFGYLGDRYNRKY [SPNS1] | 3.16 ± 0.49 | 2.87 ± 0.62 | – | –
89 | EEDDDDDDDDNLPQLKKESELPFV [ANKRD40] | 5.32 ± 0.1 | 5.42 ± 0.18 | – | –
